According to PMC9352680, “A comprehensive thermodynamic model for RNA binding by the Saccharomyces cerevisiae Pumilio protein PUF4”:
Residue numbers refer to the chain shown, from its start. In names and notes the source's numbering stands.

T1: PUF4 RNA-binding domain (Saccharomyces cerevisiae, UniProt P25339 537-888)
T1 sequence: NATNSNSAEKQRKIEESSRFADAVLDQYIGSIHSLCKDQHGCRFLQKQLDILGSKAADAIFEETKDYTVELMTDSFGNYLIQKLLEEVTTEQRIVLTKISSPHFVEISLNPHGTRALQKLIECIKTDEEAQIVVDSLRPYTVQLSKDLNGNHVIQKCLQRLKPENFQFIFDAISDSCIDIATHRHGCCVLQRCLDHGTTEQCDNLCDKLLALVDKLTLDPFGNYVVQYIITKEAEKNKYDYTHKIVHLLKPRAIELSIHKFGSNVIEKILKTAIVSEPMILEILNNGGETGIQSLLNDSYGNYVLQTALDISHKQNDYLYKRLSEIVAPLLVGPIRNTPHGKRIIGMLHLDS

B1: Id_ii_S4_P3E.4_K3.3_C3.2_[C-2T]_[T-1A]_H3.3_A3.1_F3.1_T3.2_[T9A]_[A10T] (ssRNA)
RNA: UUUGACAACUGAUCGUUCUUUCUUAACACUAUAAUUUCUUUCUCGAUCAGUUGUCUUU
B2: Id_ii_S4_P3E.4_K3.3_C3.2_[C-2T]_[T-1A]_H3.3_A3.1_F3.1_T3.2_[A10C] (ssRNA)
RNA: B1 RNA with A34U, U35C
B3: Id_ii_S4_P3E.4_K3.3_C3.2_[C-2T]_[T-1A]_H3.3_A3.1_F3.1_T3.2_[A10T] (ssRNA)
RNA: B1 RNA with A34U
B4: Id_ii_S4_P3E.4_K3.3_C3.2_[C-2T]_[T-1A]_H3.3_A3.1_F3.1_T3.2 (ssRNA)
RNA: B1 RNA with A34U, U35A
B5: Id_ii_S4_P3E.4_K3.3_C3.2_[C-2T]_H3.3_A3.1_F3.1_T3.2_[T9G]_[A10C] (ssRNA)
RNA: B1 RNA with A25U, A34G, U35C
B6: Id_ii_S4_P3E.4_K3.3_C3.2_[C-2T]_H3.3_A3.1_F3.1_T3.2_[T9A]_[A10C] (ssRNA)
RNA: B1 RNA with A25U, U35C
B7: Id_ii_S4_P3E.4_K3.3_C3.2_[C-2T]_H3.3_A3.1_F3.1_T3.2_[T9A] (ssRNA)
RNA: B1 RNA with A25U, U35A
B8: Id_ii_S4_P3E.4_K3.3_C3.2_[C-2T]_H3.3_A3.1_F3.1_T3.2_[A10T] (ssRNA)
RNA: B1 RNA with A25U, A34U
B9: Id_ii_S4_P3E.4_K3.3_C3.2_[C-2T]_H3.3_A3.1_F3.1_T3.2 (ssRNA)
RNA: B1 RNA with A25U, A34U, U35A
B10: Id_ii_S4_P3E.4_K3.3_C3.2_[C-2A]_[T-1C]_H3.3_A3.1_F3.1_T3.2_[T9G]_[A10C] (ssRNA)
RNA: B1 RNA with U24A, A25C, A34G, U35C
B11: Id_ii_S4_P3E.4_K3.3_C3.2_[C-2A]_[T-1C]_H3.3_A3.1_F3.1_T3.2_[T9A]_[A10C] (ssRNA)
RNA: B1 RNA with U24A, A25C, U35C
B12: Id_ii_S4_P3E.4_K3.3_C3.2_[C-2A]_[T-1C]_H3.3_A3.1_F3.1_T3.2_[A10T] (ssRNA)
RNA: B1 RNA with U24A, A25C, A34U
B13: Id_ii_S4_P3E.4_K3.3_C3.2_[C-2A]_[T-1A]_H3.3_A3.1_F3.1_T3.2_[T9C] (ssRNA)
RNA: B1 RNA with U24A, A34C, U35A
B14: Id_ii_S4_P3E.4_K3.3_C3.2_[C-2A]_[T-1A]_H3.3_A3.1_F3.1_T3.2_[A10C] (ssRNA)
RNA: B1 RNA with U24A, A34U, U35C
B15: Id_ii_S4_P3E.4_K3.3_C3.2_[C-2A]_H3.3_A3.1_F3.1_T3.2_[T9A]_[A10C] (ssRNA)
RNA: B1 RNA with U24A, A25U, U35C
B16: Id_ii_S4_P3E.4_K3.3_C3.2_[C-2A]_H3.3_A3.1_F3.1_T3.2_[A10C] (ssRNA)
RNA: B1 RNA with U24A, A25U, A34U, U35C
B17: Id_ii_S4_P3E.4_K3.3_C3.2_[C-2A]_H3.3_A3.1_F3.1_T3.2_[A10T] (ssRNA)
RNA: B1 RNA with U24A, A25U, A34U
B18: Id_ii_S4_P3E.4_K3.3_C3.2_[T-1G]_H3.3_A3.1_F3.1_T3.2_[T9C]_[A10T] (ssRNA)
RNA: B1 RNA with U24C, A25G, A34C
B19: Id_ii_S4_P3E.4_K3.3_C3.2_[T-1G]_H3.3_A3.1_F3.1_T3.2_[T9C] (ssRNA)
RNA: B1 RNA with U24C, A25G, A34C, U35A
B20: Id_ii_S4_P3E.4_K3.3_C3.2_[T-1G]_H3.3_A3.1_F3.1_T3.2_[T9A] (ssRNA)
RNA: B1 RNA with U24C, A25G, U35A
B21: Id_ii_S4_P3E.4_K3.3_C3.2_[T-1C]_H3.3_A3.1_F3.1_T3.2_[T9G]_[A10C] (ssRNA)
RNA: B1 RNA with U24C, A25C, A34G, U35C
B22: Id_ii_S4_P3E.4_K3.3_C3.2_[T-1C]_H3.3_A3.1_F3.1_T3.2_[A10T] (ssRNA)
RNA: B1 RNA with U24C, A25C, A34U
B23: Id_ii_S4_P3E.4_K3.3_C3.2_[T-1A]_H3.3_A3.1_F3.1_T3.2_[T9C]_[A10C] (ssRNA)
RNA: B1 RNA with U24C, A34C, U35C
B24: Id_ii_S4_P3E.4_K3.3_C3.2_[T-1A]_H3.3_A3.1_F3.1_T3.2 (ssRNA)
RNA: B1 RNA with U24C, A34U, U35A
B25: Id_ii_S4_P3E.4_K3.3_C3.2_H3.3_A3.1_F3.1_T3.2_[T9C]_[A10T] (ssRNA)
RNA: B1 RNA with U24C, A25U, A34C
B26: Id_ii_S4_P3E.4_K3.3_C3.2_H3.3_A3.1_F3.1_T3.2_[T9C] (ssRNA)
RNA: B1 RNA with U24C, A25U, A34C, U35A

Biological target: T1, PUF4 RNA-binding domain
Assay: Mg; RNA-MaP; 20 mM Na-HEPES pH 7.4, 30 mM KOAc, 0.75 mM MgCl2, 0.1% Tween-20, 5% glycerol, 0.1 mg/mL BSA, 2 mM DTT; 25 C; 0.0125-409.6 nM protein
Details: tags: N-His6-TEV cleaved; C-SNAP kept, Cy3B-labelled; label: tethered on chip by stalled RNA polymerase

Binder	Kd
B1	> 2300 nM
UCUCUUUUUAGUAUUAUCUCUU (ssRNA) [Ib_S1_P5E.1_K5.1_C5.1_H5.1_[G2T]_A5.1_[T5G]_F5.1_T5.1]	> 2300 nM
B2	1540 nM
B3	1310 nM
B4	264 nM
B5	1230 nM
B6	935 nM
B7	2300 nM
B8	946 nM
B9	345 nM
B10	> 2300 nM
B11	1370 nM
UCUCUUUAUAGUAUUAUCUCUU (ssRNA) [Ib_S1_P5E.1_K5.1_C5.1_H5.1_[G2A]_A5.1_[T5G]_F5.1_T5.1]	1360 nM
B12	1140 nM
B13	496 nM
B14	1020 nM
B15	26.4 nM
B16	41.8 nM
B17	49.3 nM
B18	> 2300 nM
B19	637 nM
B20	> 2300 nM
B21	> 2300 nM
UCUCUUUAUACUAUUAUCUCUU (ssRNA) [Ib_S1_P5E.1_K5.1_C5.1_H5.1_[G2A]_A5.1_[T5C]_F5.1_T5.1]	330 nM
B22	1050 nM
B23	2160 nM
B24	291 nM
B25	1380 nM
B26	597 nM
